In paper PMC11257983 (2024):

Columns and labels:
[1] = target: endogenous CNK (anti-CNK blot, no CNK construct transfected); test: anti-V5 immunoprecipitation, immunoblot quantification; conditions: S2 cells; V5-KSR and Myc-MEK co-expressed; anti-CNK blot (band near 180 kDa); parent: 1.00
[2] = target: CNK^CRIC N96E (Flag-CNK^2–549 assumed); test: GST pull-down, immunoblot quantification; conditions: S2 cells, Flag-CNK2–549, V5-KSR, Myc-MEK, GST-HYP co-expressed, captured via GST-HYP, parent: 1.00
[3] = target: CNK^CRIC Q84E (Flag-CNK^2–549 assumed); test: GST pull-down, immunoblot quantification; conditions: S2 cells, Flag-CNK2–549, V5-KSR, Myc-MEK, GST-HYP co-expressed, captured via GST-HYP, parent: 1.00
Flag-CNK^2–549 = Flag-CNK^2–549 (UniProt Q7KNQ9); test: GST pull-down, immunoblot quantification; conditions: S2 cells, Flag-CNK2–549, V5-KSR, Myc-MEK, GST-HYP co-expressed, captured via GST-HYP, parent: 1.00
Flag-CNK^2–549, sequence (Q7KNQ9 entry or part of it): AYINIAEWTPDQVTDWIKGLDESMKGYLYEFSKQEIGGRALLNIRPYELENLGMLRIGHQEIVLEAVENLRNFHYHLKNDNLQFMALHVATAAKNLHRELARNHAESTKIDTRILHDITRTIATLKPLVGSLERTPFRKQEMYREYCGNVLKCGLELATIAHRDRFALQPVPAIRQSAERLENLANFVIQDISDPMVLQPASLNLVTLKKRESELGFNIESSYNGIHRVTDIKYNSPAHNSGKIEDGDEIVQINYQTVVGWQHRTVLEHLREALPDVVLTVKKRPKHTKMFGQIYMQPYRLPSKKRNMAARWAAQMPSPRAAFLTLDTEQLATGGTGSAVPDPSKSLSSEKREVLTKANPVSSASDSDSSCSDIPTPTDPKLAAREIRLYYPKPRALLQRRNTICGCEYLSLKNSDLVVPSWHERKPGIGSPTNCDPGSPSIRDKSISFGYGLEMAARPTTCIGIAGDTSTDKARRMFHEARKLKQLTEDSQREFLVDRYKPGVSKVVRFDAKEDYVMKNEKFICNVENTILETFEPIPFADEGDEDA

[4] = target: CNK^SAM Y76R (Flag-CNK^2–549 assumed); test: GST pull-down, immunoblot quantification; conditions: S2 cells, Flag-CNK2–549, V5-KSR, Myc-MEK, GST-HYP co-expressed, captured via GST-HYP, parent: 1.00
[5] = target: CNK^SAM R46F (Flag-CNK^2–549 assumed); test: GST pull-down, immunoblot quantification; conditions: S2 cells, Flag-CNK2–549, V5-KSR, Myc-MEK, GST-HYP co-expressed, captured via GST-HYP, parent: 1.00
V5-KSR R913E, Q24171 = target: T1, V5-KSR R913E, Q24171; test: anti-V5 immunoprecipitation, immunoblot quantification; conditions: chain shown with the change; S2 cells; V5-KSR and Myc-MEK co-expressed; anti-Myc (MEK) blot; parent: 1.00
T1 chain: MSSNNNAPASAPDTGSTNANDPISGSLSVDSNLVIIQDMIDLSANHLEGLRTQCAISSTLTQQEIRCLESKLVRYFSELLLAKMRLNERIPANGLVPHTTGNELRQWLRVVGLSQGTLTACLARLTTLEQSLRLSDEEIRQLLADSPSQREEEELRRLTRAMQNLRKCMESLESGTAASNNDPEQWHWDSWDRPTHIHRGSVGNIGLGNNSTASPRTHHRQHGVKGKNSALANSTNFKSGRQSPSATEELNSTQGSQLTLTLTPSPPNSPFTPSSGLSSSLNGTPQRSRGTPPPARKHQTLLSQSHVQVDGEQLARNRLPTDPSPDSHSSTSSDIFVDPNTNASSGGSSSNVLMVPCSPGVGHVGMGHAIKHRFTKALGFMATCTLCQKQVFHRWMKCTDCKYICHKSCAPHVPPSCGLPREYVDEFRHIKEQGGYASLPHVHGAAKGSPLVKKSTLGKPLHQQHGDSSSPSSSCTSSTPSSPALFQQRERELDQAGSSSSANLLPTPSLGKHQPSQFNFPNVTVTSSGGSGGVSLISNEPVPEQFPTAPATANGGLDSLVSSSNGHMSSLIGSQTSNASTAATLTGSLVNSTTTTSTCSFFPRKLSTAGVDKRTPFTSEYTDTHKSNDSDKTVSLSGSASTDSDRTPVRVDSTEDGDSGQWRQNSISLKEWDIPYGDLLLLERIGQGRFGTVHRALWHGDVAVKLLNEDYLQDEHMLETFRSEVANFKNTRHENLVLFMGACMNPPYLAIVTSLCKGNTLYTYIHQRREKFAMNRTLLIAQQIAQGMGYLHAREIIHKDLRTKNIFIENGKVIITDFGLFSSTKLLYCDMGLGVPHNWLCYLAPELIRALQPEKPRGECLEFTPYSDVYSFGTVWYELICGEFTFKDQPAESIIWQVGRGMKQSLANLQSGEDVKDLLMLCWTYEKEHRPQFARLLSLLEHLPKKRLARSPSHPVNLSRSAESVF

Molecule V5-KSR (from UniProt Q24171) M902D has a ratio to parent [1] of 0.13.

Work on m6; m8 MEK:E323R; CNK:N96E yielded a ratio to parent ([2]; anti-Myc (MEK) blot) of 0.22 and a ratio to parent ([2]; anti-V5 (KSR) blot) of 0.27.

m5; m8 KSR:R913E; CNK:Q84E was tested, and the ratio to parent ([3]; anti-Myc (MEK) blot) was 0.1 and the ratio to parent ([3]; anti-V5 (KSR) blot) was 0.13.

V5-KSR (from UniProt Q24171) K903D gave a ratio to parent [1] of 0.26.

Work on V5-KSR (from UniProt Q24171) E926R yielded a ratio to parent [1] of 1.12.

V5-KSR (from UniProt Q24171) Y925D gave a ratio to parent [1] of 0.25.

For m6; m8 MEK:E323R; CNK:Q84E, the ratio to parent ([3]; anti-Myc (MEK) blot) was 0.02 and the ratio to parent ([3]; anti-V5 (KSR) blot) was 0.05.

Molecule m5; m6 KSR:R913E; MEK:E323R has a ratio to parent (Flag-CNK^2–549; anti-Myc (MEK) blot) of 0.41 and a ratio to parent (Flag-CNK^2–549; anti-V5 (KSR) blot) of 0.41.

Work on V5-KSR (from UniProt Q24171) W896R yielded a ratio to parent [1] of 0.29.

For m6; m8 MEK:E323R; CNK:Y76R, the ratio to parent ([4]; anti-Myc (MEK) blot) was 0.06 and the ratio to parent ([4]; anti-V5 (KSR) blot) was 0.09.

With m6; m8 MEK:E323R; CNK:R46F the ratio to parent ([5]; anti-Myc (MEK) blot) was 0.2 and the ratio to parent ([5]; anti-V5 (KSR) blot) was 0.23.

B1: m6; m5 MEK:E323R; KSR:R913E (protein)
chain: MSKNKLNLVLPPVNTEATVAAATVAPTPPFKTPSGTDTHSLLGKPKTSIDALTETLEGLDMGDTERKRIKMFLSQKEKIGELSDEDLEKLGELGSGNGGVVMKVRHTHTHLIMARKLIHLEVKPAIKKQILRELKVLHECNFPHIVGFYGAFYSDGEISICMEYMDGGSLDLILKRAGRIPESILGRITLAVLKGLSYLRDNHAIIHRDVKPSNILVNSSGEIKICDFGVSGQLIDSMANSFVGTRSYMSPERLQGTHYSVQSDIWSLGLSLVEMAIGMYPIPPPNTATLESIFADNAEESGQPTDEPRAMAIFELLDYIVNRPPPKLEHKIFSTEFKDFVDICLKKQPDERADLKTLLSHPWIRKAELEEVDISGWVCKTMDLPPSTPKRNTSPN
B1 was tested, and the ratio to parent (V5-KSR R913E, Q24171) was 1.01.
